{"source": "patent US20230093399A1", "about": "“METHODS FOR GENERATING PLURIPOTENT STEM CELL-DERIVED BROWN FAT CELLS” (AgeX Therapeutics, Inc., priority 2013, published 2023)", "molecules": {"B1": {"name": "BMP4: Bone Morphogenetic Protein 4, TGF-beta superfamily member (protein, UniProt P12644 293-408, looked up)", "Bone morphogenetic protein 4": "SPKHHSQRARKKNKNCRRHSLYVDFSDVGWNDWIVAPPGYQAFYCHGDCPFPLADHLNSTNHAIVQTLVNSVNSSIPKACCVPTELSAISMLYLDEYDKVVLKNYQEMVVEGCGCR"}}, "key": {"[1]": {"test_system": "Bone marrow-derived mesenchymal stem cells (MSCs)", "test": "Differentiation of bone marrow-derived MSCs in HyStem-C beads, FABP4 expression", "assay_type": "cell-based", "settings": "14 days, 50 ng/mL BMP2, or 10 ng/mL BMP4, or 100 ng/mL BMP7", "method": "The Gelin-S® component (10 mg of thiol-modified gelatin (BioTime)) is dissolved in 1.0 ml of degassed deionized water to prepare a 1% w/v solution, and polyethylene glycol diacrylate (10 mg of PEGDA) is dissolved in 0.5 ml of degassed deionized water to prepare a 2% w/v solution. Then, HyStem (1 ml, 1% w/v) is mixed with Gelin-S (1 ml, 1% w/v) immediately before use. Pelleted cells are resuspended in the recently prepared HyStem:Gelin-S (1:1 v/v) mix described above. Upon the addition of the PEGDA cross-linker, the cell suspension, at a final concentration of 2.0×10^7 cells/ml is aliquoted (25 μl/aliquot) into six-well plates (Corning® 3516; VWR, PA, USA) after partial gelation. Following complete gelation (20 min), Differentiation Medium is added to each well. Plates were then placed in a humidified incubator at 37° C. with ambient O2 and 10% CO2, and the cells were fed three-times weekly. At the desired time point, hydrogel constructs were either fixed and processed for immunohistochemical analysis or lysed using RLT (Qiagen, CA, USA) with 1% beta-mercaptoethanol for total RNA to analyze transcript expression using quantitative real-time PCR (qRT-PCR) and/or whole-genome microarray."}, "[2]": {"test_system": "cell line E15 and the line W10", "test": "Cell lines E15 and W10 in micromass versus HyStem-C culture with BMP4, gene expression", "assay_type": "cell-based, human", "settings": "micromass conditions supplemented with 10 ng/mL BMP4", "method": "In addition, the incubation of hEP cell lines in HyStem-C (BioTime, Inc. Alameda, Calif.) allowed the accumulation of a large amount of data on the biological influence of HyStem-C (BioTime, Inc. Alameda, Calif.) on diverse cell types. […] This physiological effect on myofibroblastic differentiation seen in many lines cultured in HyStem-C (BioTime, Inc. Alameda, Calif.) beads (i.e., the strong reduction in MYH11 expression) has therapeutic implications in vivo, such as in inhibiting fibrosis or adhesions. It also is of benefit in surgical settings where cells could be transplanted to regenerate tissue function while inhibiting adhesions and related fibrotic process at the surgical site.\nThe present invention utilizes micromass differentiations to generate high-density cultures, thereby predisposing hEP cells to differentiation in the presence of exogenous factors. Differentiation by micromass culture was performed according to the manufacturer's (BioTime) instructions (Chondrogenesis Differentiation Kit ES-K42). Briefly, cells were cultured in the undifferentiated state, trypsinized (0.25% w/v trypsin/EDTA (Invitrogen)), diluted 1:3 with PBS (Ca and Mg free), and resuspended at a cell density of 2.0×10^7 cells/ml in their respective growth media. […]"}}}
{"molecule": "B1", "values": [{"measurement": "differentiation into adipocytes as evidenced by expression of FABP4", "setting": "[1]", "result": "caused the differentiation of the cells into adipocytes"}, {"measurement": "MYH11 expression", "setting": "[2]", "result": "strongly induced"}]}
